Here are results for 41 sequences from the nanobody polyreactivity screen of Harvey et al. (2022).

The data set can be described thus: yeast display, Sf9 membrane polyspecificity reagent, FACS + sequencing; frameworks hold sequencing errors. The gist of the method:
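Galactose-induced (36–48 hours) yeast carrying a synthetic nanobody display library were exposed to 10% biotinylated, detergent-solubilized Sf9 membrane reagent at 4 °C for 1 hour. FACS followed streptavidin microbead enrichment, using low and high (top ~1%) gates for expression (anti-HA) and reagent binding (streptavidin). Colony PCR, MiSeq 2 × 250 sequencing and CDR-length filtering followed. Labels for polyreactivity reflect the gate of origin.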
“QVQLVESGGGLVQAGGSLRLSCAASGSIFNYYAMGCYRQAPGKERELVAAIETTGGSTYYADSVKGRFTNSRDNAKNTVYLQMNSLKPEDTAVYYCAATWGKPWYYEYDYWGQGTQVTVSS”: the “polyreactivity (PSR sort gate)” value is given as “low polyreactivity”.

Regarding “QVQLVESGGGLVQAGGSLRLSCAASGSIFNYYAMGWNRQAPVKETEFVADISGSGSSTYYADSVKGRFTISRDNAKNTVYLQMNSLKPEDTAVYYCIAEYYWGVGYYPYSDYGYWGQGTQVTVSS”, the “polyreactivity (PSR sort gate)” value is reported as “low polyreactivity”. The same measure for “QVQLVESGGGLVQAGGSLRLSCAASGSIFNYYAMGWYRQAPGKERELVAGITTSGGSTYYADSVKGRFTISRDNAKNTVYLQMNSLKPEDTAVYYWAAYDYISSTYFLDDYWGQGTQVTVSS”: “low polyreactivity”; for “QVQLVESGGGLVQAGGSLRLSCAASGSIFNYYVMGWYRQAPGKERELVAGIRWNGGSTYYADSVKGRFTISRDNAKNTVYLQMNSLKPEDTAVYDCAAQAWWGYYSRGPMDYWGQGTQVTVSS”: “low polyreactivity”; for “QVQLVESGGGLVQAGGSLRLSCAASGSIFPAIAKGWYRQAPGTERELVAAISVSGARTYYADSVKGRFTISRDNAKNTVYLQMNSLKPEDTAVYYCAARAAGSQHDYWGQGTQVTVSS”: “high polyreactivity”. As to “QVQLVESGGGLVQAGGSLRLSCAASGSIFPANAMGWYRQAPGKERELVAAINRDGITNYADSVKGRFTISRDNAKNTVYLQMNSLKPEDTAVYYCAAEFAWQWWEYGYWGQGTQVTVSS”, the “polyreactivity (PSR sort gate)” value is on record as “low polyreactivity”. The same measure for “QVQLVESGGGLVQAGGSLRLSCAASGSIFPAYAMGWYRQAPGKERELVAASTDRGGSTSYADSVKGRFTISRDNAKNTVYLHKNSLKPEDT”: “low polyreactivity”; for “QVQLVESGGGLVQAGGSLRLSCAASGSIFPAYAMGWYRQAPGKERELVASITGSGGSTYYADSVKGRFTISRDIAKNTVYLQMNSLKPEDTAVYYCNARYYVYSATVDRYYHFYYWGQGTQVTVSS”: “high polyreactivity”.

As for “QVQLVESGGGLVQAGGSLRLSCAASGSIFPDYAMGRYRQAPGKERELVAGISSNSGSTYYADSVKGRFTISRDNAKNTVYLQMNSLKPEDTAVYYCAKDSFWRDTGYTDGDYWGQGTKVTVSS”, the “polyreactivity (PSR sort gate)” value is “low polyreactivity”. The same measure for “QVQLVESGGGLVQAGGSLRLSCAASGSIFPDYDMGWYRQAPGKERELVAAISSSGDSTYYADSVKGRFTISRDIAKNTVYLQMNSLKPEDTAVYYCAVDGTRSTSNGSEFTGYNYWGQGTQVTVSS”: “low polyreactivity”; for “QVQLVESGGGLVQAGGSLRLSCAASGSIFPDYTMGWYRQAPGKERELVAAITRSGDSTYYADSVKGRFTISRDNAKNTVYLQMNSLKPEDTAVYYCARDAFSVSDFSYASIEYDYWGQGTQVTVSS”: “low polyreactivity”. With “QVQLVESGGGLVQAGGSLRLSCAASGSIFPEYAMGWYRQAPGKERELVASISSGGSSTYYADSVKGRFTISRDNAKNTVYLQMNSLKPEDTAVYYCARRRSYKRRFDYWGQGTQVTVSS” the entry was “low polyreactivity”. The same measure for “QVQLVESGGGLVQAGGSLRLSCAASGSIFPFYAMGWYRQAPGKERELVAAITRSDGSTYYADSVKGRFTISRDNAKNTVYLQMNSLKPEDTAVYYCADYGYWGQGTQVTVSS”: “low polyreactivity”; for “QVQLVESGGGLVQAGGSLRLSCAASGSIFPGNAIGSYRQAPGKERELDARITVSGGTTYFADSVKGRFTISRDNAKNTVYLQMNSLKPEDTAVYYCAADGPSPFIQGYAKGDYWGQGTQVTVSW”: “low polyreactivity”; for “QVQLVESGGGLVQAGGSLRLSCAASGSIFPGNAMGWSRQAPGKEREFVAAISWSGGSTYADSVKGRFTISRDNAKNTVYLQINSVKPEDTAVYYCAAVRRYLKAAYGYWGQGTKVTVSS”: “low polyreactivity”. With “QVQLVESGGGLVQAGGSLRLSCAASGSIFPGNAMGWYRQAPGKERELVAAIRGGGSTNYADSVKGRFTISRDNAKNTVYLQMNSLKPEDTAVYYCNADPFTGYDYWGQGTQVTVSS”, the “polyreactivity (PSR sort gate)” value was “low polyreactivity”. Consider “QVQLVESGGGLVQAGGSLRLSCAASGSIFPGNAMGWYRQAPGKERELVAVIDFSGASTYYADSVKGRFTISRDNAKNTVYLQMNSLKPEDTADYWGQGSQVTVSS”, for which the “polyreactivity (PSR sort gate)” value is “low polyreactivity”. With “QVQLVESGGGLVQAGGSLRLSCAASGSIFPGNTMGWYRQAPGKERELVAGIDKNGGRTYYADSVKGRFTISRDNAKNTVYLQMNSLKPEDTAVYYCAADTWVFRRAFWTKYEYWGQGTQVTVSS” the entry was “low polyreactivity”.

On to “QVQLVESGGGLVQAGGSLRLSCAASGSIFPGYALGWYRQAPGKERELVATIRWSSGSRTNYADSVKGRFTISRENAKKTVYLQMNSLKPEDSAVYYCAAGSRRYKYDYWGQGTQVTVSS”, for which the “polyreactivity (PSR sort gate)” value is reported as “high polyreactivity”. The same measure for “QVQLVESGGGLVQAGGSLRLSCAASGSIFPGYAMGWSRQAPGKERELVAAISTSGGSTYADSVKGRFTISRDNAKNTVYLQMNSLKPEDTAVYYCAATYTYTSPVYYSLDGPWPYDYWGQGTQVTVSS”: “low polyreactivity”. The same measure for “QVQLVESGGGLVQAGGSLRLSCAASGSIFPHYAMGWYREAPGKERELVAAISRGGSTNYADSVKGRFTISRDNAKNTVYLQMNSLKPEDTAVYYCNALRYYSRFQYAVAYRYDYWGQGTQVTVSS”: “high polyreactivity”; for “QVQLVESGGGLVQAGGSLRLSCAASGSIFPIYAMGRYRQAPGKERELVAAIDSSGGSTYYADSVKGRFTISRDNAKNTVYLQMNSLKPEDTAVYYCAADFGSKSTPYDYWGQGTQVTVSS”: “low polyreactivity”; for “QVQLVESGGGLVQAGGSLRLSCAASGSIFPIYAMGWDRQAPGKERELVASINISGGRTYYADSVKGRFTISRDNAKNTVYLQMNSLKPEDSAVYYCAAEWYTTSEYDYWGQGTQVTVSS”: “low polyreactivity”.

Regarding “QVQLVESGGGLVQAGGSLRLSCAASGSIFPIYAMGWYRQATGKERELVAAINSGGGTNYADSVKGRFTISRDNAKNTVYLQMNSLKPEDTAVYYCAKSRYDYTKTEGGYWGQGTQVTVSS”, the “polyreactivity (PSR sort gate)” value is reported as “low polyreactivity”.

Turning to “QVQLVESGGGLVQAGGSLRLSCAASGSIFPKYAMGWYRQAPGKEREFVAAISRRGGSTYYAYSVKGRFTISRDNAKNTVYLQMNSLKPEDTAVYYCSVKIPTYPIFGRYGYWGQGTQVTVSS”, the “polyreactivity (PSR sort gate)” value is “high polyreactivity”. On to “QVQLVESGGGLVQAGGSLRLSCAASGSIFPKYAMGWYRQAPGKERELVATISYRGGRTYYADSVKGRFTISRDNAKNTVYLQMYSLKPEDTAVYYCATRYPYYPFYVGIYELDYWGQGTQVTVSS”, for which the “polyreactivity (PSR sort gate)” value is “low polyreactivity”. With “QVQLVESGGGLVQAGGSLRLSCAASGSIFPLYAMGWYRQAPGKERELVAAITSNGGRTYYADSVKGRFTISRDNAKNTVYLQMNSLKPEDTAVYYCNKYLLDYRRGRSDYWGQGTQVTVSS”, the “polyreactivity (PSR sort gate)” value was “low polyreactivity”.

As to “QVQLVESGGGLVQAGGSLRLSCAASGSIFPLYAMGWYRQAPGKERELVAGINGNDGSTYYADSVKGRFTISRDYEKNTVYLQRNRLKPEDTAVYYCAARGSTAHPHYPFNYWGQGTQVTVSS”, the “polyreactivity (PSR sort gate)” value is listed as “low polyreactivity”. With “QVQLVESGGGLVQAGGSLRLSCAASGSIFPPYAMGWYRQAPGKERELVATITIRGGSTYYADSVKGRFTISRDNAKNSVYLQMNSLKPEDTAVYYCAADYTKYYRRYYYWGQGTQVTVSS”, the “polyreactivity (PSR sort gate)” value was “high polyreactivity”. Regarding “QVQLVESGGGLVQAGGSLRLSCAASGSIFPQYAMGWYRQAPGKERELVAAISWSGGRTYYADSVKGRFTISRDNAKNTVYIQMNSLKPEDTAVYYCNRLYRRWYGREDDYWGQGTQVTVSS”, the “polyreactivity (PSR sort gate)” value is given as “high polyreactivity”. With “QVQLVESGGGLVQAGGSLRLSCAASGSIFPQYAMGWYRQAPGKERELVAVISWSGGRTYYADSVKGRFTISRDNAKNTVYLQMNSLKPEDTAVYYCAAKYWYQRYPQSSYTRYYWGQGTQVTVSS” the entry was “high polyreactivity”; with “QVQLVESGGGLVQAGGSLRLSCAASGSIFPRNAMGWSRQAPGKEMELVATITSGTSTNYADSVKGRFTISRDNAKNTVYLQMNSLKPEDTAVYYCAADHYYTGTTYNYWGQGTQVTVSS”, “low polyreactivity”; with “QVQLVESGGGLVQAGGSLRLSCAASGSIFPRNAMGWYRQAPGKERELVAAISWRGGRTYYADSVKGRFTISRDNAKKTVYLQMNSLNPEDTAVYYCSEQYSRWKRGEYYLSSSYGYWGQGTQVTVSS”, “high polyreactivity”. The same measure for “QVQLVESGGGLVQAGGSLRLSCAASGSIFPRNAMGWYRQAPGKERELVAAITSSGGTTYYADSVKGRFTISRDNAKNTVYLQMISLKPEDTAVYYCNAAYPYSSVGRDYWGQGTQVTVSS”: “high polyreactivity”. The same measure for “QVQLVESGGGLVQAGGSLRLSCAASGSIFPRYAMGWYRQAPGKERELVAAITGSGSSTYYADSVKGRFTISRDNAKNTVYLQMNSLKPEDTAVYYCADRFIWGYWGVGYYYWGQGTQVTVSS”: “low polyreactivity”; for “QVQLVESGGGLVQAGGSLRLSCAASGSIFPRYAMGWYRQAPGKERELVAAITGSGSSTYYADSVKGRFTISRDNAKNTVYLQMNSLKPEDTAVYYCAGVYTYPLGYYHYTYDYWGQGTQVTVSS”: “low polyreactivity”.

Turning to “QVQLVESGGGLVQAGGSLRLSCAASGSIFPRYAMGWYRQAPGKERELVAAITSSAGSTYYADSVKGRFTISRDNAKNTVYLQMNSLKPEDTAVYYCAASGPWSYWYDYWGQGTQVTVSS”, the “polyreactivity (PSR sort gate)” value is recorded as “low polyreactivity”. As to “QVQLVESGGGLVQAGGSLRLSCAASGSIFPRYVMAWYRQAPGKERELVAAISGSGGSTYYADSVKGRFTISRDNAKNTVYFQMNSLIPEDTAVYYCNKLRRRVNRDIDDYWGQGTQVTVSS”, the “polyreactivity (PSR sort gate)” value is listed as “high polyreactivity”. “QVQLVESGGGLVQAGGSLRLSCAASGSIFPSNAMGWYRQAPGKERELVAAISSSGGRTYYADSVKGRFTISRDNAKNTVYLQMNSLKPEDTAVYYCNRVYFKSRQGQMYYWGQGTQVTVSS”: the “polyreactivity (PSR sort gate)” value is reported as “high polyreactivity”. As to “QVQLVESGGGLVQAGGSLRLSCAASGSIFPSNAMGWYRQAPGKERELVAAISWSGDITYYADSVKGRFTISRDNAKNTVYLQLNSLKPEDTAVYYCAADTPIAGYWYNYWGQGTQVTVSS”, the “polyreactivity (PSR sort gate)” value is recorded as “low polyreactivity”. The same measure for “QVQLVESGGGLVQAGGSLRLSCAASGSIFPSYAMGWYRQAPGKERELVAAISKSGGRTKYADSVKGRFTISRDNAKNTVYLQMNSLKPEDTAVYYCAAYAYFHRREGYWGQGTQVTVSS”: “high polyreactivity”.
